What was measured:
NFAT [1] = assay: Gal-3BP-induced IL-2 secretion with or without NFAT inhibitors (ELISA); assay type: cell-based, human; details: Gal-3BP 10 μg/ml for the times indicated; FIG. 6A
Experimental: (§1) Measurement of cytokines was carried out with Ready set Go ELISA kits (eBioscience).
To determine if NFAT is required for Gal-3BP-induced IL-2 secretion, human blood monocytes were incubated with M-CSF (100 ng/ml) for 6 days to produce monocyte-derived macrophages (M0). […] Macrophages were alternatively treated with Gal-3BP (10 μg/ml) in the absence or presence of CSA (1 μM) or FK506 (1 μM), another known NFAT inhibitor (FIG. 6B). […] (P values are ***0.0004, **0.006 and *0.034)

NFAT [2] = assay: NFAT translocation to nucleus, immunofluorescence microscopy; assay type: cell-based, human; details: Gal-3BP 10 μg/ml for 2 hours; M0 macrophages; FIG. 5
Experimental: Cells were fixed in formaldehyde 4%, 10-20 min, room temperature. Cells were then permeabilized in chilled methanol, 5-10 min, and −20° C. in and washed extensively with PBS, then blocked using 5% donkey serum in PBS. Primary antibody (Rabbit anti-NFATc2/NFATp (1:50, ImmunoGlobe), diluted in PBS with goat serum 10%) was applied over night in 4° C. Biotin anti-rabbit antibodies (1:200 Molecular Probes) were incubated for 1 hour. Streptavidin, (Alexa Fluor® 594 conjugate*2 mg/mL*Cat. No. S-32356) detection 1:1000 for 1 hour. DAPI (1:1,000, Sigma Aldrich) for 5 min at room temperature.
These macrophages were then incubated with Gal-3BP (10 μg/ml for 2 hours). Both samples were stained with DAPI (nuclear stain) and an antibody to NFAT (anti-NFAT c2/p IG 209, affinity purified rabbit antibody, ImmunoGlobe). Nuclear translocation was assessed by immunofluorescence microscopy (FIG. 5).

[3] = test system: intracellular free Ca^2+ in human M0 macrophages; assay: Ca2+ mobilization in M0 macrophages, fluo-4 fluorescence microscopy; assay type: cell-based; details: Gal-3BP 10 ug/ml; M0 macrophages loaded with 1 μM fluo-4; FIG. 4
Experimental: Human blood monocytes were cultured as described in Example 2 to produce MO macrophages, incubated with 1 μM fluo-4 for 30 minutes to quantify intracellular free Ca^2+ concentrations, and then triggered with Gal-3BP (10 ug/ml) with or without the PLC-γ inhibitor U73122 (10 nM). Thapsigargin (100 nM) served as positive control. Ca^2+ mobilization was assayed by fluorescence microscopy as previously described (Zanoni et al., Nature 460:264 (2009)). Each line is a measurement from a single cell (FIG. 4).

human macrophages = assay: Gal-3BP-induced IL-2 secretion in monocyte-derived macrophages (ELISA); assay type: cell-based
Experimental: (§2) Monocytes were isolated from peripheral blood of human healthy donors. Monocyte purity as assessed by flow cytometry for CD14 (clone HCD14, BioLegend, San Diego, Calif.) was routinely >97%. Monocytes were cultured for six days with M-CSF (100 ng/ml, Peprotech, Rocky Hill, N.J.) in macrophage serum-free medium (Gibco, Carlsbad, Calif.) supplemented with nutridoma SP (Roche, Nutley, N.J.), and penicillin/streptomycin (Sigma Aldrich).
as §1
(§3) Human blood monocytes were incubated with M-CSF (100 ng/ml) for 6 days to produce monocyte-derived macrophages (MO). These macrophages were incubated with interferon-γ (250 u/ml) for 1 day to produce M1 macrophages or with IL-4 (20 units/ml) to produce M2 macrophages or with PGE-2 (1 μM) to produce Mreg macrophages and then challenged with LPS (10 ng/ml) for another day or with Gal-3BP (10 μg/ml over 48 h).
Human blood monocytes were cultured as in (A) (*P=0.05, ***P<0.0001). These macrophages were incubated with Gal-3BP (0.1,1 and 10 μug/ml) for 6 hours and IL-2 was measured by ELISA. […] Human blood monocytes were cultured as in (A). These macrophages were incubated with Gal-3BP (10 μg/ml) or LPS (10 ng/ml) for 6 hours (***P<0.0001).

[4] = test system: microRNAs known to be transcriptional targets of NFAT; assay: microRNA expression in M0 macrophages after Gal-3BP (miRCURY LNA Array); assay type: cell-based; details: Gal-3BP 10 ug/ml; human M0 macrophages; fold-change screen; FIG. 7
Experimental: The targets of NFAT signaling are largely cytokines, growth factors and their receptors, proteins involved in cell-cell interactions, as well as microRNAs (Crabtree and Schreiber, Cell, 138: 210 (2009)). To evaluate Gal-3BP's ability to induce NFAT signaling, microRNA expression in human M0 macrophages following Gal-3BP treatment was measured.
Human M0 macrophages were challenged with Gal-3BP (10 ug/ml), small RNAs were isolated and screened for microRNA expression using miRCURY™ Power Labeling Kit and hybridized on the miRCURY™ LNA Array (v.11.0). The samples were hybridized using a hybridization station and scanned using the Axon GenePix 4000B microarray scanner. GenePix pro V6.0 is used to extract the raw intensity of the image. Differentially expressed microRNAs were identified through fold-change screen. […] These microRNAs reflect increased NFAT activity via Gal-3BP.

[5] = test system: human monocyte-derived macrophages (M0); assay: Macrophage phenotype: IL-10, IL-2, IL-12 and IL-6 production (ELISA); assay type: cell-based; details: Gal-3BP 10 μg/ml over 48 h
Experimental: as §2, §1
as §3, with “(M0).” for “(MO).”, “units/ml)” for “u/ml)”, “h). […] P values are indicated on the graphs.” for “h).”

B1: Gal-3BP: Galectin-3 binding protein, a secreted 585 (murine 577) amino acid protein; human sequence SEQ ID NO:1 (protein, listed as Homo sapiens)
chain: MTPPRLFWVWLLVAGTQGVNDGDMRLADGGATNQGRVEIFYRGQWGTVCDNLWDLTDASVVCRALGFENATQALGRAAFGQGSGPIMLDEVQCTGTEASLADCKSLGWLKSNCRHERDAGVVCTNETRSTHTLDLSRELSEALGQIFDSQRGCDLSISVNVQGEDALGFCGHTVILTANLEAQALWKEPGSNVTMSVDAECVPMVRDLLRYFYSRRIDITLSSVKCFHKLASAYGARQLQGYCASLFAILLPQDPSFQMPLDLYAYAVATGDALLEKLCLQFLAWNFEALTQAEAWPSVPTDLLQLLLPRSDLAVPSELALLKAVDTWSWGERASHEEVEGLVEKIRFPMMLPEELFELQFNLSLYWSHEALFQKKTLQALEFHTVPFQLLARYKGLNLTEDTYKPRIYTSPTWSAFVTDSSWSARKSQLVYQSRRGPLVKYSSDYFQAPSDYRYYPYQSFQTPQHPSFLFQDKRVSWSLVYLPTIQSCWNYGFSCSSDELPVLGLTKSGGSDRTIAYENKALMLCEGLFVADVTDFEGWKAAIPSALDTNSSKSTSSFPCPAGHFNGFRTVIRPFYLTNSSGVD
- IL-2 secretion over time (NFAT [1]): induced secretion of IL-2
- NFAT translocation to nucleus (NFAT [2]): induces NFAT translocation to nucleus
- Ca^2+ mobilization [3]: triggers Ca^2+ mobilization
- IL-2 production (human macrophages; Gal-3BP 10 μg/ml or LPS 10 ng/ml for 6 hours, FIG. 1C, P<0.0001): induces IL-2 production
- IL-2 production (human macrophages; Gal-3BP 10 μg/ml over 48 h, standard ELISA, FIG. 1A, P=0.0003): induced production of IL-2
- IL-2 production, concentration dependence (human macrophages; Gal-3BP 0.1, 1 and 10 μg/ml for 6 hours, ELISA, FIG. 1B): concentration dependently induces IL-2 production
- Number of eight NFAT-target microRNAs significantly up-regulated [4]: five were significantly up-regulated
- IL-10 production ([5]; FIG. 2A): moderate IL-10
- IL-2 production ([5]; FIG. 2B): production of IL-2
- IL-12 production ([5]; FIG. 2C): no IL-12
- IL-6 production ([5]; FIG. 2D): little IL-6
